Data set [1] deals with T1, human serum albumin (Homo sapiens, UniProt P02768). Briefly: Co-crystal structure and in silico modelling of peptide with human serum albumin. The settings on record: crystal structure and modeling data. The method, then:
The crystal structure was determined as follows: the purified proteins were used in crystallization trials employing both, a standard screen of approximately 1200 different conditions, as well as crystallization conditions identified using literature data. Conditions initially obtained have been optimized using standard strategies, systematically varying parameters critically influencing crystallization, such as temperature, protein concentration, drop ratio, etc. These conditions were also refined by systematically varying pH or precipitant concentrations. Crystals were obtained via the method of co-crystallization.
Crystals have been flash-frozen and measured at a temperature of 100K. The X-ray diffraction have been collected at the SWISS LIGHT SOURCE (SLS, Villigen, Switzerland) using cryogenic conditions. Data were processed using the programs XDS and XSCALE. The phase information necessary to determine and analyze the structure was obtained by molecular replacement. Subsequent model building and refinement was performed with the software packages CCP4 and COOT. The peptide parameterization was carried out with the program […].
Modeling of the interaction was performed using ICM-Pro (Molsoft) and Discovery Studio (Accelrys) with a force-field that is based on the parameters as described in Momany et al. (Momany et al. J. Phys. Chem. 1975, 79, 2361-2381)

For data set [2], the target named is T1, human serum albumin. Put plainly: Phage ELISA on HSA-coated plates. It counts as binding. The conditions noted are these: phage clones; near-infrared fluorescence intensity vs phage dilution, FIG. 2. How it is done: 5-fold serial dilutions of phage clones (starting from ˜5×10^11 phage) were added to 96-well Nunc Maxisorp plates coated with human serum albumin (2 μg/ml in PBS, overnight at 4° C.; plates were blocked with Superblock T20 (Pierce) for 1 h at room temperature). The microtiter plate was washed with wash buffer (PBS, 0.05% Tween 20) and bound phages were detected with anti-M13 and goat-anti mouse IRDye conjugate (610-130-121, Rockland). The amount of IRDye bound was measured on Odyssey (LI-COR Biosciences). The dilution of phage was plotted against measured near-infrared fluorescence intensity (FIG. 2).

Data set [3] has as its target T1, human serum albumin. Briefly: Surface plasmon resonance (BIAcore 3000) of 2D3 fusion proteins, Example 6. The data set is classed as binding. The method, then: (§1) The binding of the resulting 2D3-17D12 and 2D3-56H5 fusion proteins to human serum albumin was determined using surface plasmon resonance analysis. For this purpose, the fusion proteins were expressed in E. coli TG1 cells. The fusion proteins were purified by IMAC/SEC and binding to HSA was assessed in BIAcore™ 3000, by injecting 1 μM and 5 μM of the 2D3-17D12 and 2D3-56H5 fusion proteins on a CM5 chip coated with ˜7000 RU human serum albumin (Sigma, 99% pure) and 2460 RU an irrelevant protein antigen (reference). Coating of the chip (CM5) was performed by amine coupling using NHS/EDC for activation and ethanolamine for deactivation (Biacore amine coupling kit). HBS-EP was used as flow buffer at a rate of […]. 20 μl of sample was injected for 120 s. The 2D3 Nanobody was injected as control.

For data set [4], the system named is irrelevant protein antigen. Put plainly: Surface plasmon resonance control on chip coated with irrelevant protein, Example 6. It counts as binding. The settings on record: 5 μM injected; CM5 chip coated with irrelevant protein (2400RU). The method, then:
as §1

The nature of data set [5]: Pharmacokinetic profile in male cynomolgus monkeys: monovalent Nanobody 2D3 constructs. The data set is classed as in vivo, Cynomolgus monkey. The conditions noted are these: for exposure higher and total body clearance (CL) lower than after 2D3: on average, relative to control article 2D3; for AUCinf / C0: serum. How it is done:
The pharmacokinetic profile of this 2D3-9GS-EXP56E4 Nanobody construct (“construct” or “test item” hereafter) was analysed in male cynomolgus monkeys of approximately 3 to 4 years old and was compared to the 2D3 control (“control” or “negative control” hereafter). The construct and the control were each injected in three monkeys. Both the construct and the control were administered at a dose of 2 mg/kg via intravenous infusion. Blood samples were taken at predose, 5 min, 20 min, 1 h, 2 h, 4 h, 8 h, and 16 h after administration and at test days 2, 3, 5, 7, 9, 12, 15, 18, 21, 24, 27, 30, 33, 36, 39, 42, 45, 48, 51, 54, and 57 after the start of the infusion. In order to obtain at least 0.25 mL serum per animal per sampling time, a sufficient volume of whole blood was withdrawn per sampling time and the serum was isolated after 1 h of incubation at 37° C. The serum samples were stored at −80° C.
Serum samples were tested for serum levels of construct and the control, respectively, using the following ELISA assay.
96-well microtiter plates (Maxisorp, Nunc, Wiesbaden, Germany) were coated for 1 hour at 37° C. with Recombinant Human ErbB2/Fc Chimera, C F (R&D Systems, Minneapolis) in PBS at 3 μg/mL for the negative control and 4.5 μg/mL for the test item. Wells were aspirated and blocked for 30 minutes at room temperature (RT) with SuperBlock®T20 PBS (Pierce, Rockford, Ill.). After this blocking step, wells were washed with PBS-0.05% Tween20.
Preparations for the standards, QC samples and dilutions of the test samples were performed in a non-coated (polypropylene) plate.
Standard curve and QC-samples: Solutions at the required concentrations were prepared in PBS 0.1% casein and spiked into 100% monkey serum. To prepare standards and QC samples, a 1/10 dilution of the pure monkey serum dilutions was made in PBS-0.1% casein.
Test samples: Dilution factors for the test samples were estimated, and varied from 1/10 to 1/500. Samples were diluted 1/10 in PBS 0.1% casein in a first step, and if needed, further dilution was done in PBS 0.1% casein containing 10% monkey serum. These sample dilutions were further serially diluted 1/5 in PBS 0.1% casein with 10% monkey serum over 2 wells.
Standards, QC samples and the 1/5 dilutions of the test samples were transferred onto the coated plate and incubated for 1 hour at RT. Afterwards the plates were washed and rabbit polyclonal anti-VHH K1, purified against protein A and Her2/Fc depleted, was added at 1 μg/mL in PBS 0.1% casein, and incubated for 1 hour at RT. After washing a 1/2000 dilution in PBS 0.1% casein of horse radish peroxidase labelled goat anti-rabbit (Dakocytomation, Denmark) was added to the plate and incubated for 30 minutes at RT. This enzyme catalyzes a chemical reaction with the substrate sTMB (3,3′,5,5′-tetramethylbenzidine, SDT reagents, Brussels, Belgium), which results in a colorimetric change. After stopping this reaction after 15 minutes using HCl (1N), the intensity of the colour was measured by a spectrophotometer, which determines the optical density of the reaction product, using a 450 nm wavelength of light.
The concentration of the construct and the control in the serum samples was determined towards a standard curve of the construct and the control, respectively. The concentration determination was performed using the sigmoidal dose-response curve with variable slope. All serum samples were tested minimally in duplicate. Average values were reported. For each sample standard deviations and precision between the different results was calculated.
For blood sampling and processing, the pharmacokinetic profile of the constructs (2D3-9GS-EXP56E4 and 2D3-9GS-EXP59C2) and the negative control 2D3 were determined in male Cynomolgus monkeys of approximately 3 to 4 years old and was compared to that of the control (2D3). The constructs and the control were administered to three monkeys at a dose of 2 mg/kg by intravenous bolus injection. […]

Data set [6] addresses T1, human serum albumin. Briefly: Surface plasmon resonance (BIAcore 3000) of 2D3-9GS-56E4 and 2D3-9GS-59C2, Example 11. It counts as binding. The method, then: (§2) The binding was determined in BIAcore™ 3000, by injecting concentration series of the fusion proteins ranging from 2 μM to 200 nM on a CM5 chip coated with ˜3000 RU HSA or CSA. Coating of the chip (CM5) was performed by amine coupling using NHS/EDC for activation and ethanolamine for deactivation (Biacore amine coupling kit). HBS-EP was used as flow buffer at a rate of 45 μl min-1. 90 μl of sample was injected for 120 s.

In data set [7] the target is Cynomolgus monkey serum albumin (Macaca fascicularis, UniProt A2V9Z4). Described as above. It counts as binding. The conditions noted are these: for ka: untagged constructs. The method, then:
as §2

[8] abbreviates: i.v. bolus 2 mg/kg, male Cynomolgus monkey, mean n = 3.

Changes are numbered by the printed parent chain. Read-outs that look alike come from different tables or passages of the source.

Chain of Cynomolgus monkey serum albumin (A2V9Z4 25-608): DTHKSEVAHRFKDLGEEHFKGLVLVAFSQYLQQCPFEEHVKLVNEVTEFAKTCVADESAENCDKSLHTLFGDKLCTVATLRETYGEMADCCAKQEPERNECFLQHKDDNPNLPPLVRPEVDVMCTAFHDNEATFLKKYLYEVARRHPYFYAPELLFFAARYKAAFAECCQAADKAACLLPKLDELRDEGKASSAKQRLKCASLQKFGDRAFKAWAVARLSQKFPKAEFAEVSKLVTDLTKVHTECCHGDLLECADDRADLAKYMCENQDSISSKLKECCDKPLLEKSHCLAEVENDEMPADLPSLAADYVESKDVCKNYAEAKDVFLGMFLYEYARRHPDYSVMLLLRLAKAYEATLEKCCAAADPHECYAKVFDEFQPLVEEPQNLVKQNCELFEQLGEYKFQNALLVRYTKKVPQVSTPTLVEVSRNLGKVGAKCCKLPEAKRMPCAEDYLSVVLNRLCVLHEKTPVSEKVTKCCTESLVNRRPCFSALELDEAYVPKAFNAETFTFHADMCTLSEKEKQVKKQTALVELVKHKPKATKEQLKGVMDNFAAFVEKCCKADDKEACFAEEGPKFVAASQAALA

In the case of “AAARYWDYDVFGGGTPVGGAAA [peptide of SEQ ID NO: 143, based on EXP56E4 with an additional N-terminal alanine and three C-terminal alanine residues]”, in the data set with human serum albumin [1], the “binding site on human serum albumin” value was “binds in a deep subpocket of domain I of human serum albumin”.

For AAPYRDYDVFGGGTPRGE [56 F2], the “binding to HSA compared to the amino acid sequence of SEQ ID NO: 1” value in the data set with human serum albumin [2] is “stronger binding”.

With AAYYYDYDVFGGGTPGGE [56 E2], the “binding to HSA compared to the amino acid sequence of SEQ ID NO: 1” value in the data set with human serum albumin [2] is recorded as “stronger binding”.

B1: 2D3-56H5: SEQ ID NO: 139, fusion of Nanobody 2D3 and peptide 56H5 with Myc-His tag (protein)
chain: EVQLVESGGSLVQPGGSLRLSCAASGFTFDDYAMSWVRQVPGKGLEWVSSINWSGTHTDYADSVKGRFTISRNNANNTLYLQMNSLKSEDTAVYYCAKNWRDAGTTWFEKSGSAGQGTQVTVSSGGGGSGGGSAAAFYDDYDVFGGGTPAGGAAAEQKLISEEDLNGAAHHHHHH
modifications: Myc-His tag; fusion protein
As for B1, in the data set with human serum albumin [3] (1 μM and 5 μM injected, comparison with 2D3-17D12 fusion protein), the “binding to HSA (surface plasmon resonance, FIG. 5)” value is listed as “improved binding”. In the data set with human serum albumin [3] (CM5 chip ~7000 RU HSA), this molecule yielded a ka of 7570 M⁻¹ s⁻¹ and a kd of 0.0093 s⁻¹. Besides, the “specific binding to irrelevant protein” value in data set [4] was “no specific binding was detected”.

B2: 2D3-9GS-EXP56E4: SEQ ID NO: 142, fusion of peptide 56E4 and Nanobody 2D3 via 9GS linker (protein)
chain: EVQLVESGGSLVQPGGSLRLSCAASGFTFDDYAMSWVRQVPGKGLEWVSSINWSGTHTDYADSVKGRFTISRNNANNTLYLQMNSLKSEDTAVYYCAKNWRDAGTTWFEKSGSAGQGTQVTVSSGGGGSGGGSRYWDYDVFGGGTPVGG
For B2, in data set [5] (cynomolgus monkeys, 2 mg/kg intravenous infusion, Table IV), the “Terminal Half-life” value turned out to be 8.54 ± 0.79 h. Further, in data set [5] (setting [8]), the Vdss is 0.0503 L/kg, the AUCinf is 458 µg·h/mL and the C0 worked out at 66.8 µg/mL. In data set [5] (i.v. bolus 2 mg/kg, male Cynomolgus monkey, mean n = 3, 2 mg/kg), the “t½ (terminal half-life)” value turned out to be 8.54 h. The “exposure higher and total body clearance (CL) lower than after 2D3” value in data set [5] turned out to be 23 fold. In addition, in data set [5] (relative to 2D3), the “mean Vdss lower compared to 2D3” value came to 2.3 fold and the “terminal half-life (t½) increase relative to 2D3” value is on record as 4.2 fold. Further, in the data set with human serum albumin [6] (dissociation rate), the “Kd” value came to 0.00497 s⁻¹. Further, the Kd with human serum albumin [6] (read-out: KD) came to 342 nM. Further, the ka in the data set with human serum albumin [6] (untagged constructs) is given as 1.04E+04 1/ms. Moreover, in data set [7], the “koff (dissociation rate constant)” value turned out to be 0.00847 s⁻¹ and the ka is 1.71E+04 1/ms.

B3: 2D3-9GS-59C2: SEQ ID NO: 164, 59C2 without the two N-terminal alanines fused via 9GS linker to C-terminus of 2D3 (protein)
chain: B2 chain with Y135D, Y138F
In data set [5] (setting [8]), B3 registered a Vdss of 0.0455 L/kg, an AUCinf of 1540 µg·h/mL and a C0 of 62.5 µg/mL. Besides, the “exposure higher and total body clearance (CL) lower than after 2D3” value in data set [5] was 77 fold. Also, the “mean Vdss lower compared to 2D3” value in data set [5] (relative to 2D3) was found to be 2.6 fold. Moreover, in data set [7], the “koff (dissociation rate constant)” value was 0.00247 s⁻¹ and the ka is listed as 8.98E+03 1/ms.

The values above are taken from patent US8217140B2, “Peptides capable of binding to serum proteins and compounds, constructs and polypeptides comprising the same” (Ablynx N.V., priority 2008, dated 2012).
